{
  "source": "paper PMC5193325",
  "biological_target": "Flag-NLRP3 (UniProt Q96P20)",
  "sequence (Q96P20 whole entry)": "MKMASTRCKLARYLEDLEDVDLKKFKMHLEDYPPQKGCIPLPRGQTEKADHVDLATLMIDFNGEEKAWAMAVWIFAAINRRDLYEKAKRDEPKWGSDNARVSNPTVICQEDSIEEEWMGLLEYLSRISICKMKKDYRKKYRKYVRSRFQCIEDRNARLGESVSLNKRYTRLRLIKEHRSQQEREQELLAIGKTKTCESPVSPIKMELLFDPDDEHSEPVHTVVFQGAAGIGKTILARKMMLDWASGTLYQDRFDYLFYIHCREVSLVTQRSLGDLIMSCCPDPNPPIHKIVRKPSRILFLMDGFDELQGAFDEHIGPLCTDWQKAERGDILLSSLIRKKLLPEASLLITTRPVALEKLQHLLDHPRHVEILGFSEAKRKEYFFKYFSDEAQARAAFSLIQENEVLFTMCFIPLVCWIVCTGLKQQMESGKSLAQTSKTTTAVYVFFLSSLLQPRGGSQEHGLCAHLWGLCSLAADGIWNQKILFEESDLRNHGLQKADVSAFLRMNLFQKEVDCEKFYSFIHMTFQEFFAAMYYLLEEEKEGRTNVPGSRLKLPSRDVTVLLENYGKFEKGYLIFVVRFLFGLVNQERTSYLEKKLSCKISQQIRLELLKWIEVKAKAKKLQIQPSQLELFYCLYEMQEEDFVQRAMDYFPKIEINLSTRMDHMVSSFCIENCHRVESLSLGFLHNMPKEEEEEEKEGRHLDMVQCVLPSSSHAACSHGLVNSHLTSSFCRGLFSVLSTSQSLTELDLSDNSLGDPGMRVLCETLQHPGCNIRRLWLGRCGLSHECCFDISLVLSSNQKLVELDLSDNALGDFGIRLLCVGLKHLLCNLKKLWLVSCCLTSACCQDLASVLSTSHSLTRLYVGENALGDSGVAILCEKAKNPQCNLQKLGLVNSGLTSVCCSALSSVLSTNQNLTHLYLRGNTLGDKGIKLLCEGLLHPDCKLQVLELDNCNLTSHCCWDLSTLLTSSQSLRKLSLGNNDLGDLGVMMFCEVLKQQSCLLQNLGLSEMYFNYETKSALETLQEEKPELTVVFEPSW",
  "experiment": "pull-down; competition: purified cytochrome c (100 ng) or BSA added to Flag-NLRP3 immunoprecipitates with HA-NEK7 lysate, 1 hour at room temperature; NEK7 left on the beads read by immunoblot, ImageJ",
  "data": [
    {"substance": "Purified cytochrome c protein (Sigma-Aldrich) (from UniProt P99999 1-105) (natural protein)", "values": [
      {"measurement": "percent reduction of NEK7 bound to Flag-NLRP3 (cytochrome c against BSA)", "result": 70, "unit": "%"}
    ]}
  ]
}
